Source: patent US20200317768A1 (published 2020)

T1: cynomolgus monkey FcγRIIIaS extracellular domain, His-tagged (cynomolgus monkey, UniProt Q8SPW2 21-206 at identity 1.00))
T1 construct: also called cyno FcγRIIIaS; cynoFcγRIIIaS
T1 chain: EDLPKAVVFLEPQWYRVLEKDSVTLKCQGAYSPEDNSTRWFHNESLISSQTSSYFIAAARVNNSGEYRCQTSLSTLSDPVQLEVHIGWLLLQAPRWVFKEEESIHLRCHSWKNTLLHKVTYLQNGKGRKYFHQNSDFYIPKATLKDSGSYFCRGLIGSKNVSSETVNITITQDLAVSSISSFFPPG

T2: human FcγRIIaH extracellular domain, His-tagged (human, UniProt P12318 34-217)
T2 construct: also called human FcγRIIa (type H); FcgRIIaH
T2 sequence: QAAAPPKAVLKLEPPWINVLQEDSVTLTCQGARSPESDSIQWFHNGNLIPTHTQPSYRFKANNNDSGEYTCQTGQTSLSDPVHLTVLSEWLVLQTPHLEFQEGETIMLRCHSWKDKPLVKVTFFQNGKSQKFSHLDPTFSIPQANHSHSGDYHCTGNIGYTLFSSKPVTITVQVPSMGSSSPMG

T3: cynomolgus monkey FcγRIIa3 extracellular domain, His-tagged (cynomolgus monkey)
T3 construct: also called cyno FcγRIIa3; cynoFcgRIIa3
T3 chain: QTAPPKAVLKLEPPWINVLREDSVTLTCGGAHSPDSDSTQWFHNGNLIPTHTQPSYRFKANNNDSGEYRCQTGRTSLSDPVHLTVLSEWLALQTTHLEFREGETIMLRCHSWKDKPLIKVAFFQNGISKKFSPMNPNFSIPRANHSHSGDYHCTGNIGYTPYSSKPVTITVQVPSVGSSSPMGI

T4: cynomolgus monkey FcγRIIa1 extracellular domain, His-tagged (cynomolgus monkey)
T4 construct: also called cyno FcγRIIa1; cynoFcgRIIa1
T4 chain: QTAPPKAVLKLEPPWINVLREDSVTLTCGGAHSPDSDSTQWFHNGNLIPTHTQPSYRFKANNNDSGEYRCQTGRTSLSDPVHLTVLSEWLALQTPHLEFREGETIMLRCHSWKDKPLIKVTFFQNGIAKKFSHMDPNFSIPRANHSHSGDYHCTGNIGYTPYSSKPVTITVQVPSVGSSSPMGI

T5: cynomolgus monkey FcγRIIb extracellular domain, His-tagged (cynomolgus monkey)
T5 construct: also called cyno FcγRIIb; cynoFcγRIIb
T5 chain: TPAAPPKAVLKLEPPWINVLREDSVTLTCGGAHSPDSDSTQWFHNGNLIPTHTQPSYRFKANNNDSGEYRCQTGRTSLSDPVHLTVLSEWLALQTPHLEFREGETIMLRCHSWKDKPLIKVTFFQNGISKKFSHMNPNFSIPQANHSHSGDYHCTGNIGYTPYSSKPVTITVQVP

T6: human FcγRIIb extracellular domain, His-tagged (human, UniProt P31994 43-217)
T6 construct: also called FcgRIIb (human)
T6 sequence: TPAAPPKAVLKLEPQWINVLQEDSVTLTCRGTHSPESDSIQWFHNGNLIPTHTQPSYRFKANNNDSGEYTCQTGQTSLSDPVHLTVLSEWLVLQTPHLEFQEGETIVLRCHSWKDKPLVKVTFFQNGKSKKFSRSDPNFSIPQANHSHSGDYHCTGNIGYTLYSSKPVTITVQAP

T7: human FcγRIIaR extracellular domain, His-tagged (human, UniProt P12318 34-217)
T7 construct: also called human FcγRIIa (type R); FcgRIIaR
T7 chain: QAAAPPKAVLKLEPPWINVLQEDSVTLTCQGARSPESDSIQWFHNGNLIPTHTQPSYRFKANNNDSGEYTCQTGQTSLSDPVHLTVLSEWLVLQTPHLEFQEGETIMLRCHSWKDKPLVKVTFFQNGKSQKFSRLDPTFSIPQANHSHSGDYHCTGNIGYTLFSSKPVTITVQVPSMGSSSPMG

T8: cynomolgus monkey FcγRIIa2 extracellular domain, His-tagged (cynomolgus monkey)
T8 construct: also called cyno FcγRIIa2; cynoFcgRIIa2
T8 chain: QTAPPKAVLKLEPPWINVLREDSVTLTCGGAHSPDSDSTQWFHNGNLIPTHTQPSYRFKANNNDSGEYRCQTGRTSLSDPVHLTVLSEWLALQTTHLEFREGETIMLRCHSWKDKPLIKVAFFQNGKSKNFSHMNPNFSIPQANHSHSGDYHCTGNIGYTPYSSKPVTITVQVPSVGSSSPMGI


Experiments:
Test in all cases: SPR, antibody captured, FcgR analyte
[1] = biological target: T1, cynomolgus monkey FcγRIIIaS …
[2] = biological target: T2, human FcγRIIaH extracellular domain, …
[3] = biological target: T3, cynomolgus monkey FcγRIIa3 …
[4] = biological target: T4, cynomolgus monkey FcγRIIa1 …
[5] = biological target: T5, cynomolgus monkey FcγRIIb extracellular …
[6] = biological target: T6, human FcγRIIb extracellular domain, …
[7] = biological target: T7, human FcγRIIaR extracellular domain, …
[8] = biological target: T9, human FcγRIIIaV extracellular domain, His-tagged (human, UniProt P08637 17-208)
T9 construct: also called FcgRIIIaV
T9 sequence (P08637 17-208 F176V): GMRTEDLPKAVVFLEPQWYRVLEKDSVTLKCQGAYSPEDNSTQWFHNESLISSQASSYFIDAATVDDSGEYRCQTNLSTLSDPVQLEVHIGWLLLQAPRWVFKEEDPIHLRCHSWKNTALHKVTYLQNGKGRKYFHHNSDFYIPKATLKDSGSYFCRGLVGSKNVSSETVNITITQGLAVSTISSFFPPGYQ

[9] = biological target: T8, cynomolgus monkey FcγRIIa2 …

Binder | Kd [1] [nM] | Kd [2] [nM] | Kd [3] [nM] | Kd [4] [nM] | Kd [5] [nM] | Kd [6] [nM] | Kd [7] [nM] | Kd [8] [nM] | Kd [9] [nM]
M103205H795-MY038/M103202L889-SK1 (antibody, human IgG1, kappa, Substitution put into M103205H795-SG1) heavy: not shown light: DIVMTQSPATLSLSPGERATLSCTSSQSVYHANWLSWFQQKPGQPPKLLIYWASTLAYGVPSRFSGSGSGTDFTLTISSLQPEDAATYYCAGGYGGGRYAFGQGTKVEIKRTVAAPSVFIFPPSDEQLKSGTASVVCLLNNFYPREAKVQWKVDNALQSGNSQESVTEQDSKDSTYSLSSTLTLSKADYEKHKVYACEVTHQGLSSPVTKSFNRGEC | 310 | 1200 | 11000 | 3900 | 1900 | 2600 | 1500 | 650 | 4500
M103205H795-MY041/M103202L889-SK1 (antibody, human IgG1, kappa, Substitution put into M103205H795-SG1) heavy: not shown light: DIVMTQSPATLSLSPGERATLSCTSSQSVYHANWLSWFQQKPGQPPKLLIYWASTLAYGVPSRFSGSGSGTDFTLTISSLQPEDAATYYCAGGYGGGRYAFGQGTKVEIKRTVAAPSVFIFPPSDEQLKSGTASVVCLLNNFYPREAKVQWKVDNALQSGNSQESVTEQDSKDSTYSLSSTLTLSKADYEKHKVYACEVTHQGLSSPVTKSFNRGEC | 260 | 1800 | 7400 | 4000 | 3500 | 3100 | 1200 | 480 | 4100
M103205H795-MY043/M103202L889-SK1 (antibody, human IgG1, kappa, Substitution put into M103205H795-SG1) heavy: not shown light: DIVMTQSPATLSLSPGERATLSCTSSQSVYHANWLSWFQQKPGQPPKLLIYWASTLAYGVPSRFSGSGSGTDFTLTISSLQPEDAATYYCAGGYGGGRYAFGQGTKVEIKRTVAAPSVFIFPPSDEQLKSGTASVVCLLNNFYPREAKVQWKVDNALQSGNSQESVTEQDSKDSTYSLSSTLTLSKADYEKHKVYACEVTHQGLSSPVTKSFNRGEC | 840 | 2900 | 18000 | 5800 | 4400 | 3000 | 1500 | 120 | 61000
M103205H795-MY044/M103202L889-SK1 (antibody, human IgG1, kappa, Substitution put into M103205H795-SG1) heavy: not shown light: DIVMTQSPATLSLSPGERATLSCTSSQSVYHANWLSWFQQKPGQPPKLLIYWASTLAYGVPSRFSGSGSGTDFTLTISSLQPEDAATYYCAGGYGGGRYAFGQGTKVEIKRTVAAPSVFIFPPSDEQLKSGTASVVCLLNNFYPREAKVQWKVDNALQSGNSQESVTEQDSKDSTYSLSSTLTLSKADYEKHKVYACEVTHQGLSSPVTKSFNRGEC | 470 | 1200 | 52000 | 3200 | 1600 | 3300 | 920 | 900 | 3500
M103205H795-MY045/M103202L889-SK1 (antibody, human IgG1, kappa, Substitution put into M103205H795-SG1) heavy: not shown light: DIVMTQSPATLSLSPGERATLSCTSSQSVYHANWLSWFQQKPGQPPKLLIYWASTLAYGVPSRFSGSGSGTDFTLTISSLQPEDAATYYCAGGYGGGRYAFGQGTKVEIKRTVAAPSVFIFPPSDEQLKSGTASVVCLLNNFYPREAKVQWKVDNALQSGNSQESVTEQDSKDSTYSLSSTLTLSKADYEKHKVYACEVTHQGLSSPVTKSFNRGEC | 140 | 1600 | 6800 | 5700 | 2200 | 2900 | 1600 | 240 | 4000
M103205H795-MY048/M103202L889-SK1 (P271D) (antibody, human IgG1, kappa, Here the P271D molecule is meant; Put into M103205H795-SG1) heavy: not shown light: DIVMTQSPATLSLSPGERATLSCTSSQSVYHANWLSWFQQKPGQPPKLLIYWASTLAYGVPSRFSGSGSGTDFTLTISSLQPEDAATYYCAGGYGGGRYAFGQGTKVEIKRTVAAPSVFIFPPSDEQLKSGTASVVCLLNNFYPREAKVQWKVDNALQSGNSQESVTEQDSKDSTYSLSSTLTLSKADYEKHKVYACEVTHQGLSSPVTKSFNRGEC | 370 | 1800 | 4400 | 6600 | 3500 | 3000 | 1200 | 610 | 11000
M103205H795-MY063/M103202L889-SK1 (antibody, human IgG1, kappa, Substitution put into M103205H795-SG1) heavy: not shown light: DIVMTQSPATLSLSPGERATLSCTSSQSVYHANWLSWFQQKPGQPPKLLIYWASTLAYGVPSRFSGSGSGTDFTLTISSLQPEDAATYYCAGGYGGGRYAFGQGTKVEIKRTVAAPSVFIFPPSDEQLKSGTASVVCLLNNFYPREAKVQWKVDNALQSGNSQESVTEQDSKDSTYSLSSTLTLSKADYEKHKVYACEVTHQGLSSPVTKSFNRGEC | 67 | 270 | 2000 | 1400 | 340 | 660 | 210 | 160 | 1500
M103205H795-MY064/M103202L889-SK1 (antibody, human IgG1, kappa, Substitution put into M103205H795-SG1) heavy: not shown light: DIVMTQSPATLSLSPGERATLSCTSSQSVYHANWLSWFQQKPGQPPKLLIYWASTLAYGVPSRFSGSGSGTDFTLTISSLQPEDAATYYCAGGYGGGRYAFGQGTKVEIKRTVAAPSVFIFPPSDEQLKSGTASVVCLLNNFYPREAKVQWKVDNALQSGNSQESVTEQDSKDSTYSLSSTLTLSKADYEKHKVYACEVTHQGLSSPVTKSFNRGEC | 120 | 500 | 59000 | 2400 | 1100 | 2400 | 680 | 220 | 2800
M103205H795-MY065/M103202L889-SK1 (antibody, human IgG1, kappa, Substitution put into M103205H795-SG1) heavy: not shown light: DIVMTQSPATLSLSPGERATLSCTSSQSVYHANWLSWFQQKPGQPPKLLIYWASTLAYGVPSRFSGSGSGTDFTLTISSLQPEDAATYYCAGGYGGGRYAFGQGTKVEIKRTVAAPSVFIFPPSDEQLKSGTASVVCLLNNFYPREAKVQWKVDNALQSGNSQESVTEQDSKDSTYSLSSTLTLSKADYEKHKVYACEVTHQGLSSPVTKSFNRGEC | 110 | 520 | 4200 | 2300 | 1300 | 1900 | 510 | 230 | 2800
M103205H795-MY068/M103202L889-SK1 (antibody, human IgG1, kappa, Substitution put into M103205H795-SG1) heavy: not shown light: DIVMTQSPATLSLSPGERATLSCTSSQSVYHANWLSWFQQKPGQPPKLLIYWASTLAYGVPSRFSGSGSGTDFTLTISSLQPEDAATYYCAGGYGGGRYAFGQGTKVEIKRTVAAPSVFIFPPSDEQLKSGTASVVCLLNNFYPREAKVQWKVDNALQSGNSQESVTEQDSKDSTYSLSSTLTLSKADYEKHKVYACEVTHQGLSSPVTKSFNRGEC | 580 | 370 | 5700 | 2100 | 1000 | 2100 | 520 | 1400 | 2700
